Reference: patent publication US20220411517A1 (LEO PHARMA A S, published 2022)

What was measured:
[1] = target: cynomolgus IL-1RAcP on cells (cynomolgus, UniProt A0A2K5X5J5 21-570); assay: cell-based or functional assay
[2] = target: human IL-1RAcP on cells (human, UniProt Q9NPH3 21-570); assay: cell-based or functional assay
[3] = target: T1, cyIL-1RAP(1-367)_F-chLys_Avi (cynomolgus, biotinylated (Avi tag) in SPR; unlabeled in SET); assay: solution equilibrium titration (SET), ECL read-out, IgG
T1 construct: cynomolgus IL-1RAcP (21-367) is UniProt A0A2K5X5J5; also called cynomolgus IL-1RAcP (AG-12211)
Protocol: (§1) MSD SulfoTAG™ NHS-Ester (Meso Scale Diagnostics) according to the manufacturer's instructions. […] Serial dilutions of unlabeled antigen were prepared, starting with a concentration at least 10 times higher than the expected KD. Wells without antigen were used to determine Bₘₐₓ values;
(§2) wells containing only assay buffer were used to determine background. […] MSD plates were coated with antigen on standard plates (30 μL per well). After washing the plate with PBS with 0.05% Tween 20, the equilibrated samples were transferred to the plates and incubated for 20 min. […] After washing the MSD plate and adding 30 μL/well MSD Read Buffer T with surfactant, electrochemiluminescence signals were detected using a MESO SECTOR S 600 (Meso Scale Diagnostics).
(§3) The data was evaluated with XLfit (IDBS) software applying customized fitting models.

[4] = target: T2, hIL-1RAP(1-367)_F-chLys_Avi (human, biotinylated (Avi tag) in SPR and ELISA binning; unlabeled in SET); assay: as above
T2 construct: also called human IL-1RAcP (AG-12210)
Protocol: as §1, §2, §3

[5] = target: T3, human IL1RAcP domain 3 (AG-12127) (human); assay: ELISA on directly coated human IL-1RAcP domain 3 (AG-12127), IgG titrated, S/BG
T3 construct: also called domain 3 of human IL-1RAcP
T3 chain: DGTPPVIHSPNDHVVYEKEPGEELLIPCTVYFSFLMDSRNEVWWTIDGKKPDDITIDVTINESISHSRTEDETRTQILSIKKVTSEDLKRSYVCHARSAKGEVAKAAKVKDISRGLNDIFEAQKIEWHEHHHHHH

[6] = target: T1, cyIL-1RAP(1-367)_F-chLys_Avi; assay: ELISA on cynomolgus IL-1RAcP (AG-12211), IgG1f_AEASS titrated 0.007-200 nM, AP-coupled secondary antibody with AttoPhos, signal over background (S/BG)
Description: (§4) Bound antibodies were detected using respective alkaline-phosphatase (AP) coupled secondary antibodies in combination with ‘AttoPhos’ fluorescence substrate. Multiple washing steps have been performed in between individual assay steps.

[7] = target: T4, human IL1RAcP domain 1/2 (AG-12337) (human); assay: ELISA on directly coated human IL-1RAcP domain 1/2 (AG-12337), IgG1f_AEASS titrated, S/BG
T4 construct: also called domain 1/2 of human IL-1RAcP

[8] = target: T2, hIL-1RAP(1-367)_F-chLys_Avi; assay: ELISA on human IL-1RAcP (AG-12210), IgG1f_AEASS titrated 0.007-200 nM, AP-coupled secondary antibody with AttoPhos, signal over background (S/BG)
Description: as §4

[9] = target: T5, human IL1RAcP domain 1 (AG-12335) (human); assay: ELISA on directly coated human IL-1RAcP domain 1 (AG-12335), IgG titrated, S/BG
T5 construct: also called domain 1 of human IL-1RAcP
T5 chain: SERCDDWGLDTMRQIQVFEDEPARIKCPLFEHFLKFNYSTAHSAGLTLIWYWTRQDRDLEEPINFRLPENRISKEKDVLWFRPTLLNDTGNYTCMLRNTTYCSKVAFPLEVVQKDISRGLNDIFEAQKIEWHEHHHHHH
Protocol: All were assessed with direct coating of the antigen. […] An anti-His antibody served as positive control.

[10] = target: T2, hIL-1RAP(1-367)_F-chLys_Avi; assay: ELISA binning; competitor: coated CAN04 FabCys-AviHis; 1.5 nM biotinylated human IL-1RAcP (AG-12210) pre-incubated with the titrated Fab; captured IL-1RAcP detected with streptavidin-AP
Protocol: (§5) Epitope binning was performed using an ELISA-based competition assay. The experiments were performed using either IgG1f_AEASS or FabCys-AviHis. Antibodies were diluted to three (3) nM (for IgGs) or to 20 nM (in case of Fabs) in PBS. […] The next day 90 μL/well blocking solution (5% BSA in PBS) was added to the plate followed by an incubation at RT for at least 1 h. During incubation, the competing antibodies, including reference and negative control antibodies, were diluted in assay buffer (1xPBS, 0.5% BSA, 0.02% Tween). […] Following the incubation of the blocking solution, the ELISA plates were washed 3× with PBST. Subsequently, 20 μl/well of the prepared antibody/antigen solution was transferred to the wells and incubated for 30 min with gentle agitation. Subsequently, plates were washed 3× using PBS-T.
(§6) For detection 20 μl of a prepared streptavidin-alkaline phosphatase conjugate solution was added to the wells in order to detect bound biotinylated human IL-1RAcP. Incubation happened for 30 min with gentle agitation. Following the incubation with streptavidin-alkaline phosphatase conjugate, assay plates were washed 5× with PBS-T. Then 20 μl of AttoPhos substrate (diluted 1:5 in H₂O) was added to the wells. Plates were incubated for 10 min at RT and readout happened using a Tecan M1000 Pro Reader.
(§7) Every graph represents an individual first antibody in the FabCys-AviHis format coated on the surface. […] Subsequently, preformed antigen antibody complex was added to the respective wells with the surface coated first antibody. Detection happened via the biotin of IL-1RAcP using a streptavidin-alkaline phosphatase conjugate.

[11] = target: T1, cyIL-1RAP(1-367)_F-chLys_Avi; assay: SPR (Biacore), biotinylated antigen captured, FabCys-AviHis as analyte, 1:1 fit
Protocol: (§8) Approximately 3000 RU capture reagent was bound. This surface was used to load biotinylated antigen to generate a low-density surface for subsequent kinetic characterization (approx. 60-100 RU antigen loaded). […] After injecting the last and highest analyte concentration, a long dissociation phase was recorded. […] A blank injection of assay buffer (HBS-EP+) following the same injection pattern as described above was recorded and subtracted from specific sensorgrams during analysis (double referencing). At the end of each cycle, the sensor was regenerated with one 120 s injection of 6 M guanidine hydrochloride in 250 mM NaOH, which completely removed capture reagent with loaded biotinylated antigen and bound Fab fragments. The obtained sensorgrams were fitted to a monovalent binding model using Biacore Insight Evaluation Software. The obtained values for rate constants kₒₙ and koff were used to calculate KD.

[12] = target: T2, hIL-1RAP(1-367)_F-chLys_Avi; assay: ELISA binning; competitor: coated Y024149 FabCys-AviHis (sheet title Y024149_FAB COATED); 1.5 nM biotinylated human IL-1RAcP (AG-12210) pre-incubated with the titrated Fab; captured IL-1RAcP detected with streptavidin-AP
Protocol: as §5, §6, §7

[13] = target: T2, hIL-1RAP(1-367)_F-chLys_Avi; assay: SPR (Biacore), biotinylated antigen captured, FabCys-AviHis as analyte, 1:1 fit
Protocol: as §8

[14] = target: T2, hIL-1RAP(1-367)_F-chLys_Avi; assay: ELISA binning; competitor: coated Y024084 FabCys-AviHis (sheet title Y024084_FAB COATED); 1.5 nM biotinylated human IL-1RAcP (AG-12210) pre-incubated with the titrated Fab; captured IL-1RAcP detected with streptavidin-AP
Protocol: as §5, §6, §7

[15] = target: T2, hIL-1RAP(1-367)_F-chLys_Avi; assay: ELISA binning; competitor: coated Y024148 FabCys-AviHis; 1.5 nM biotinylated human IL-1RAcP (AG-12210) pre-incubated with the titrated Fab; captured IL-1RAcP detected with streptavidin-AP
Protocol: as §5
For detection 20 μl of a prepared streptavidin-alkaline phosphatase conjugate solution was added to the wells in order to detect bound biotinylated human IL-1RAcP. Incubation happened for 30 min with gentle agitation. Following the incubation with streptavidin-alkaline phosphatase conjugate, assay plates were washed 5× with PBS-T. Then 20 μl of AttoPhos substrate (diluted 1:5 in H₂O) was added to the wells. Plates were incubated for 10 min at RT and readout happened using a Tecan M1000 Pro Reader. […]

Row | Binder | IC50, IL-8 release, CyDFa stimulated with cynomolgus IL-1β [1] [nM] | IC50, IFNγ release, PBMC stimulated with IL-1β [2] [nM] | IC50, IFNγ release, PBMC stimulated with IL-33 [2] [nM] | IC50, IL-8 release, HDFa stimulated with IL-1α [2] [nM] | IC50, IL-8 release, HDFa stimulated with IL-36α [2] [nM] | IC50, IL-8 release, HDFa stimulated with IL-36β [2] [nM] | IC50, IL-8 release, HDFa stimulated with IL-36γ [2] [nM] | IC50, IL-8 release, HEKa stimulated with IL-1β [2] [nM] | IC50, IL-8 release, HEKa stimulated with IL-36β [2] [nM] | Kd [3] [nM] | Kd [4] [nM] | binding result [5] | EC50 (read off the curve) [7] [nM] | binding result [9] | IC50 (read off the curve) [10] [nM] | Kd [11] [nM] | IC50 (read off the curve) [12] [nM] | Kd [13] [nM] | IC50 (read off the curve) [14] [nM] | other results
1 | Y024084_h_IgG1f_AEASS (antibody, V domains shown, also called Morphosys 24084; Mor Y024084) VH: QVQLVQSGAEVKKPGASVKVSCKASGYTFTSYYMHWVRQAPGQGLEWMGIINPSGGSTSYAQKFQGRVTMTRDTSTSTVYMELSSLRSEDTAVYYCARGFVTSGIDYWGQGTLVTVSS VL: QSVLTQPPSVSAAPGQKVTISCSGSSSNIGNNYVSWYQQLPGTAPKLLIYDNNKRPSGIPDRFSGSKSGTSATLGITGLQTEDEADYYCQTWTYTGRLWIVFGGGTKLTVLG | 0.12 | 5.2 | 0.69 | 20 | 0.025 | 0.033 | 0.022 | 19 | 0.029 | 0.004 | 0.004 | no binding (tested: 2e-7 M) | ~3 | no binding (tested: 2e-7 M) | – | – | – | – | – | EC50 (read off the curve) [6]: 0.1 to 0.2 nM; EC50 (read off the curve) [8]: 0.1 to 0.2 nM
2 | R001031 (CAN04) (antibody, human IgG1, kappa, V domains shown, Variable domains of prior art CAN04 on human IgG1 kappa constant regions with AEASS) VH: QVQLVQSGAEVKKPGSSVKVSCKASGYAFSSSWMNWVRQAPGQGLEWMGRIYPGDGNTHYAQKFQGRVTLTADKSTSTAYMELSSLRSEDTAVYYCGEGYLDPMDYWGQGTLVTVSS VL: DIQMTQSPSSLSASVGDRVTITCSASQGINNYLNWYQQKPGKAPKLLIHYTSGLHAGVPSRFSGSGSGTDYTLTISSLQPEDVATYYCQQYSILPWTFGGGTKVEIKR | 1 | 3.5 | 1.3 | 3.6 | 0.019 | 0.024 | 0.008 | 18 | 0.02 | 0.016 | 0.021 | no binding (tested: 2e-7 M) | ~3 | no binding (tested: 2e-7 M) | – | – | – | – | – | –
3 | 1A05_rbh_FabCys-AviH (Fab, V domains shown, Tested as disulphide-linked Fab with Avi and His tags; also called 1A05 in FabCys-AviHis format; 1A05 (R001032)) VH: LEQSGGGAEGGLVKPGGSLELCCKASGFSLSTSYWRCWVRQAPGKGLEWIGCIYAGSGDVTYYANWVNGRFTLSRDIDQSTGCLQLNSLTAADTAMYYCASGVGFGYFNLWGQGTLVTVSS VL: ALVMTQTPSPVSAAVGGTVTINCQASEDIYSNLAWFQQKPGQPPKLLIYDASTLASGVPSRFSGSGSGTEFTLTISGLQSDDAATYYCLGVYTHISADNAFGGGTEVVVKR | – | – | – | – | – | – | – | – | – | – | – | – | – | – | ~1 | 0.184 | ~1 | 0.221 | ~1 | IC50 (read off the curve) [15]: ~1 nM

Continued, in another order:

Row | IC50, IL-8 release, CyDFa stimulated with cynomolgus IL-1β [1] [nM] | IC50, IFNγ release, PBMC stimulated with IL-1β [2] [nM] | IC50, IFNγ release, PBMC stimulated with IL-33 [2] [nM] | IC50, IL-8 release, HDFa stimulated with IL-1α [2] [nM] | IC50, IL-8 release, HDFa stimulated with IL-36α [2] [nM] | IC50, IL-8 release, HDFa stimulated with IL-36β [2] [nM] | IC50, IL-8 release, HDFa stimulated with IL-36γ [2] [nM] | IC50, IL-8 release, HEKa stimulated with IL-1β [2] [nM] | IC50, IL-8 release, HEKa stimulated with IL-36β [2] [nM] | Kd [3] [nM] | Kd [4] [nM] | binding result [5] | EC50 (read off the curve) [7] [nM] | binding result [9] | IC50 (read off the curve) [10] [nM] | Kd [11] [nM] | IC50 (read off the curve) [12] [nM] | Kd [13] [nM] | IC50 (read off the curve) [14] [nM] | Binder | other results
4 | 1 | 4.6 | 0.82 | 22 | 0.18 | 0.28 | 0.24 | 670 | 1.98 | 0.003 | 0.003 | – | – | – | – | – | – | – | – | h11C5 YKD (antibody, human IgG1, kappa, V domains shown, Variable domains of h11C5 YKD on the same modified IgG1 kappa constant regions (AEASS); Printed as 'h1105' in much of the text; also called h1105) VH: EVQLVESGGGLVQPGGSLRLSCAASGFTFSNYAMSWVRQAPGKGLEWVATVTEGGDYNYYLDDVKGRFTISRDNAKNSLYLQMNSLRAEDTAVYYCARDDWPYFFDYWGQGTLVTVSS VL: DIQMTQSPSSLSASVGDRVTITCRASENIYSNLAWYQQKPGKSPKLLVYGYKNLADVPSRFSGSGSGTDYTLTISSLQPEDFATYYCQHFKTTPRTFGGGTKVEIKR | –
5 | – | – | – | – | – | – | – | – | – | – | – | – | – | – | ~1 | 0.128 | ~2 | 0.167 | ~1 | CAN04_h_FabCys-AviH (Fab, V domains shown, Tested as disulphide-linked Fab with Avi and His tags; also called CAN04 in FabCys-AviHis format; CAN04 (R001031)) VH: QVQLVQSGAEVKKPGSSVKVSCKASGYAFSSSWMNWVRQAPGQGLEWMGRIYPGDGNTHYAQKFQGRVTLTADKSTSTAYMELSSLRSEDTAVYYCGEGYLDPMDYWGQGTLVTVSS VL: DIQMTQSPSSLSASVGDRVTITCSASQGINNYLNWYQQKPGKAPKLLIHYTSGLHAGVPSRFSGSGSGTDYTLTISSLQPEDVATYYCQQYSILPWTFGGGTKVEIKR | –
